# T1: Human CD32b (human, UniProt P31994 43-217, limits assumed)
# T1 sequence (looked up): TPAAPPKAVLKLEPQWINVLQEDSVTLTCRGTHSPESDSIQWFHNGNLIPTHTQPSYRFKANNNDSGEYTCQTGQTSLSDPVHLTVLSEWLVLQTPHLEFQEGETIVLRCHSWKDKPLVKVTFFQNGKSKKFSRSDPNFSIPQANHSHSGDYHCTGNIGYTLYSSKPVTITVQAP
# T2: Human CD32a(H) (Sino Biological, 10374-H27H1-B) (human, UniProt P12318 34-218)
# T2 construct: Loaded on streptavidin biosensors
# T2 sequence (looked up): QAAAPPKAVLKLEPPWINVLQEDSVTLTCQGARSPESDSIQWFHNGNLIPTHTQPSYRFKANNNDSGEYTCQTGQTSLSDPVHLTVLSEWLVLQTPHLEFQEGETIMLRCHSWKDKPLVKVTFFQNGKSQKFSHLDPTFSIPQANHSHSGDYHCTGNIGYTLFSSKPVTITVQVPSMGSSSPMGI
# Experiments:
# [1] = target: T3, Human FcRn (ACROBiosystems, FCM-H82W4) (human, UniProt P55899 24-297; P61769 21-119); assay: BLI (Octet RED 96), Human FcRn on streptavidin biosensor, steady state analysis
# T3 construct: Loaded on streptavidin biosensors
# T3 sequence (P55899 24-297 limits assumed, chain 1 of 2): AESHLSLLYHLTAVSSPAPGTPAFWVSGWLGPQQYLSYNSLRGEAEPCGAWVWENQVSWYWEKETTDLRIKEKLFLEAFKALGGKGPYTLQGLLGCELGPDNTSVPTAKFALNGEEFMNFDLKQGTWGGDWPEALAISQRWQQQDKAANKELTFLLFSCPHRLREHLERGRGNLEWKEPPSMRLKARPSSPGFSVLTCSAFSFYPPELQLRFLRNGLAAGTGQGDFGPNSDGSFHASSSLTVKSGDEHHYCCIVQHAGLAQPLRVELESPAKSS
# T3 sequence (P61769 21-119 limits assumed, chain 2 of 2): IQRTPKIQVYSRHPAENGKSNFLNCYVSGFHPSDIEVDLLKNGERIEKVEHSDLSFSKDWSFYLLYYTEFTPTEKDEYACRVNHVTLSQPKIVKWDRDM
# [2] = target: T4, Human CD16a(V) (Sino Biological, 10389-H27H1-B) (human, UniProt P08637 17-208); assay: BLI (Octet RED 96), Human CD16a(V) on streptavidin biosensor, 1:1 fit
# T4 construct: Loaded on streptavidin biosensors
# T4 sequence (P08637 17-208 F176V limits assumed): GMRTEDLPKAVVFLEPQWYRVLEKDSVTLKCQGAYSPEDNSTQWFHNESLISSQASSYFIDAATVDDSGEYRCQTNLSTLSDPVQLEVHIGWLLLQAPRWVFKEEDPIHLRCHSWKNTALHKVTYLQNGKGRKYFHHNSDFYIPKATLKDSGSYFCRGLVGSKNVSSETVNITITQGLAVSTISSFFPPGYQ
# Human CD32b = target: T1, Human CD32b; assay: BLI (Octet RED 96), Human CD32b on streptavidin biosensor, steady state analysis
# [3] = target: T5, Human CD16a(F) (Sino Biological, 10389-H27H-B) (human, UniProt P08637 17-208); assay: BLI (Octet RED 96), Human CD16a(F) on streptavidin biosensor, 1:1 fit
# T5 construct: Loaded on streptavidin biosensors
# T5 sequence (P08637 17-208 limits assumed): as the sequence (P08637 17-208 F176V limits assumed) above, with V160F counted along it
# [4] = target: T2, Human CD32a(H) (Sino Biological, …); assay: BLI; KD of CLDQMIX-CA808.1-IgG1 against KD of CLDQMIX-CA808.1-IgG1 VLPLL
# [5] = target: T3, Human FcRn (ACROBiosystems, FCM-H82W4); assay: as above
# [6] = target: T5, Human CD16a(F) (Sino Biological, …); assay: as above
# [7] = target: T4, Human CD16a(V) (Sino Biological, …); assay: as above
# [8] = target: T2, Human CD32a(H) (Sino Biological, …); assay: BLI (Octet RED 96), Human CD32a(H) on streptavidin biosensor, steady state analysis
# Claudin18.2 on cells [9] = target: T6, Claudin18.2 on cells (human, UniProt P56856-2 1-261); assay: flow cytometry on 293T-Claudin18.2 cells, antibody at 1.5 µg/mL
# T6 construct: whole, on cells; the cell line of each result is named under assay or readout
# Claudin18.2 on cells [10] = target: T6, Claudin18.2 on cells; assay: flow cytometry on NUGC4 cells, antibody at 1.5 µg/mL
# Claudin18.2 on cells [11] = target: T6, Claudin18.2 on cells; assay: flow cytometry on 293T-Claudin18.2 cells, antibody at 0.75 µg/mL
# Claudin18.2 on cells [12] = target: T6, Claudin18.2 on cells; assay: flow cytometry on NUGC4 cells, antibody at 0.75 µg/mL
# Claudin18.1 on cells [13] = target: T7, Claudin18.1 on cells (human, UniProt P56856 1-261); assay: flow cytometry on 293T-Claudin18.1 cells, antibody at 0.75 µg/mL
# T7 construct: whole, on cells
# Claudin18.1 on cells [14] = target: T7, Claudin18.1 on cells; assay: flow cytometry on 293T-Claudin18.1 cells, antibody at 1.5 µg/mL
# Claudin18.2 on cells [15] = target: T6, Claudin18.2 on cells; assay: flow cytometry on NUGC4 cells, antibody at 3 µg/mL
# Claudin18.2 on cells [16] = target: T6, Claudin18.2 on cells; assay: flow cytometry on 293T-Claudin18.2 cells, antibody at 3 µg/mL
# Claudin18.1 on cells [17] = target: T7, Claudin18.1 on cells; assay: flow cytometry on 293T-Claudin18.1 cells, antibody at 0.375 µg/mL
# Claudin18.1 on cells [18] = target: T7, Claudin18.1 on cells; assay: flow cytometry on 293T-Claudin18.1 cells, antibody at 3 µg/mL
# Claudin18.2 on cells [19] = target: T6, Claudin18.2 on cells; assay: cell-based or functional assay
# Claudin18.2 on cells [20] = target: T6, Claudin18.2 on cells; assay: cell-based or functional assay; remark: listed apart in the source
# Claudin18.2 on cells [21] = target: T6, Claudin18.2 on cells; assay: flow cytometry on 293T-Claudin18.2 cells, antibody at 0.375 µg/mL
# Claudin18.2 on cells [22] = target: T6, Claudin18.2 on cells; assay: flow cytometry on 293T-Claudin18.2 cells, antibody at 0.75 µg/mL; remark: listed apart in the source
# Claudin18.2 on cells [23] = target: T6, Claudin18.2 on cells; assay: flow cytometry on 293T-Claudin18.2 cells, antibody at 0.375 µg/mL; remark: listed apart in the source
# Claudin18.2 on cells [24] = target: T6, Claudin18.2 on cells; assay: flow cytometry on 293T-Claudin18.2 cells, antibody at 1.5 µg/mL; remark: listed apart in the source
# Claudin18.2 on cells [25] = target: T6, Claudin18.2 on cells; assay: flow cytometry on 293T-Claudin18.2 cells, antibody at 3 µg/mL; remark: listed apart in the source
# Claudin18.2 on cells [26] = target: T6, Claudin18.2 on cells; assay: cell-based or functional assay; remark: listed apart in the source
Binder,Kd [1],Kd [2],Kd (Human CD32b),Kd [3],Kd [8],mean fluorescence intensity (Claudin18.2 on cells [10]),mean fluorescence intensity (Claudin18.2 on cells [12]),mean fluorescence intensity (Claudin18.2 on cells [15]),mean fluorescence intensity (Claudin18.2 on cells [22]),mean fluorescence intensity (Claudin18.2 on cells [23]),mean fluorescence intensity (Claudin18.2 on cells [24]),mean fluorescence intensity (Claudin18.2 on cells [25]),"ADCC inhibition rate, %, antibody 0.5 µg/mL, 293T-Claudin18.2 target cells, PBMC effectors, LDH (Claudin18.2 on cells [26])","ADCC inhibition rate, %, antibody 5 µg/mL, 293T-Claudin18.2 target cells, PBMC effectors, LDH (Claudin18.2 on cells [26])","ADCC inhibition rate, %, antibody 50 µg/mL, 293T-Claudin18.2 target cells, PBMC effectors, LDH (Claudin18.2 on cells [26])",also measured
CLDQMix-CA808.1-IgG1-VLPLL (antibody) heavy: not shown light: DIVMTQSPSSLSASVGDRVTITCRASQGIRNDLGWYQQKPGKAPKLLIYAASSLQSGVPSRFSGSGSGTDFTLTISSLQPEDFATYYCLQDYNYPRTFGQGTKVEIKRTVAAPSVFIFPPSDEQLKSGTASVVCLLNNFYPREAKVQWKVDNALQSGNSQESVTEQDSKDSTYSLSSTLTLSKADYEKHKVYACEVTHQGLSSPVTKSFNRGEC,5.27 nM,54.1 nM,3000 nM,119 nM,300 nM,–,–,–,–,–,–,–,–,–,–,Ratio of KD [4]: 1.37; Ratio of KD [5]: 1.31; Ratio of KD [6]: 4.75; Ratio of KD [7]: 1.98
"CLDQMIX-CA808.1-IgG1 (antibody, Complete IgG1 made in HEK293 cells from the scFv clone; also called CLDMIX-CA808.1-IgG1) heavy: not shown light: DIVMTQSPSSLSASVGDRVTITCRASQGIRNDLGWYQQKPGKAPKLLIYAASSLQSGVPSRFSGSGSGTDFTLTISSLQPEDFATYYCLQDYNYPRTFGQGTKVEIKRTVAAPSVFIFPPSDEQLKSGTASVVCLLNNFYPREAKVQWKVDNALQSGNSQESVTEQDSKDSTYSLSSTLTLSKADYEKHKVYACEVTHQGLSSPVTKSFNRGEC",6.93 nM,107 nM,3200 nM,566 nM,410 nM,138000,75600,185000,–,–,–,–,–,–,–,"mean fluorescence intensity (Claudin18.2 on cells [9]): 1.2e+06; mean fluorescence intensity (Claudin18.2 on cells [11]): 753000; mean fluorescence intensity (Claudin18.1 on cells [13]): 29400; mean fluorescence intensity (Claudin18.1 on cells [14]): 28900; mean fluorescence intensity (Claudin18.2 on cells [16]): 1.38e+06; mean fluorescence intensity (Claudin18.1 on cells [17]): 26000; mean fluorescence intensity (Claudin18.1 on cells [18]): 47500; ADCC EC50 (µg/mL), NUGC4 target cells, Jurkat reporter effector cells, Bio-Glo (Claudin18.2 on cells [19]): 1.26 µg/mL; ADCC inhibition rate, %, antibody 0.1 µg/mL, 293T-Claudin18.2 target cells, PBMC effectors, LDH (Claudin18.2 on cells [20]): 39.4%; ADCC inhibition rate, %, antibody 1 µg/mL, 293T-Claudin18.2 target cells, PBMC effectors, LDH (Claudin18.2 on cells [20]): 63.6%; ADCC inhibition rate, %, antibody 10 µg/mL, 293T-Claudin18.2 target cells, PBMC effectors, LDH (Claudin18.2 on cells [20]): 57.4%; mean fluorescence intensity (Claudin18.2 on cells [21]): 535000"
"CLD393-C1002-IgG1 (antibody, V domains shown, Complete IgG1 made in HEK293 cells; also called CLD387-C1002-IgG1) VH: QVQLVESGGGVVQPGRSLRLSCAASGFTFSSHDMHWVRQAPGKGLEWVADISDDGSNKNYADSVKGRFTISRDNSKNTLYLQMNSLRAEDAAVYYCAREGLRWFGEFYYSYGMDVWGQGTTVTVSS VL: not shown",–,–,–,–,–,4890,4950,5170,852000,406000,1.16e+06,1.33e+06,22%,49%,64%,–
"CLD393-C1024-IgG1 (antibody, V domains shown, Complete IgG1 made in HEK293 cells; also called CLD383-C1024-IgG1) VH: EVQLVQSGGGVVQPGRSLRLSCAASGFTFSSYDMHWVRQAPGKGLEWVADISDDGSNKNYADSVKGRFTISRDNSKNTLYLQMNSLRAEDAAVYYCAREGLRWFGEFYYSYGMDVWGQGTTVTVSS VL: not shown",–,–,–,–,–,5640,5210,6140,787000,308000,1.03e+06,1.37e+06,15%,47%,48%,–
